Test results published in patent US20110293610A1 (published 2011).
Residue numbers refer to the chain shown, from its start.

T1: TNF-beta (human, UniProt P01374 35-205)
T1 construct: also called TNFβ; Tumour Necrosis Factor-beta
T1 sequence (looked up): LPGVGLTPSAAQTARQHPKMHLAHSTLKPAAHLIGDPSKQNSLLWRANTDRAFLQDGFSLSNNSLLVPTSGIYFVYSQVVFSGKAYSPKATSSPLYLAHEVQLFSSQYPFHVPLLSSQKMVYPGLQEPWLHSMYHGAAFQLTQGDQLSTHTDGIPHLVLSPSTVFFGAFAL

B1: I012A06 (scFv)
scFv: QVQLQESGPGVVKPSQTLSLTCTVSGVSISSDSYYWSWIRQPAGKGPEWIGRIYPTGSTNYNPSLKSRVTISVDTSKNQFSLQLTSVTAADTAVYYCARGRWDYDLLTGEHLGYYFDYWGRGTLVTVSSGGGGSGGGGSGGGGSALSSELTQDPAVSVALGQTVRITCQGDTLRNYYASWYQQKPGQAPVLVIHSRNNRPSGIPDRFSGSSSGTTASLTITGSQAEDEADYYCNSRDSSGNVIFGGGTKLTVLG
B2: I050B11 (scFv)
scFv: QVQLVQSGVEVKKPGASVKVSCKASGYTFSNHGISWVRQAPGQGLEWVGWISGHDDSTKYAQKFQGRVTMTADTSTSTAYIELRSLKSDDTAVYYCARPFYDTLTSYVFQYFDHWGQGTMVTVSSGGGGSGGGGSGGGGSALETTLTQSPDTLSLSPGERATLSCRASQSVTRGWVAWYQQKPGQAPRLLMYGTSRRATGVPDRFSGSESGTDFTLTISRLEPEDFAVYYCQQYATSPRTFGQGTRLEIKR
B3: I031C07 (scFv)
scFv: EVQLVQSGAEVKKPGSSVKVSCRASGGSFIDGSINWLRQAPGQGLEWVGGTIPLANRANYAQKFRDRVTITADELTAIVFLELTSLRSDDTALYYCARSSPPRWYDALTGDSSYHSAMDVWGQGTMVTVSSGGGGSGGGGSGGGGSAQSALTQPPSASGSPGQSVTISCSGTSSDIGDSNSVSWYQQHPGKAPKLLIYEVTKRPSGVPDRFAGSRSDNTASLTVSGLQTEDEADYYCSSSAARNHLVFGGGTKVTVLG
B4: I016F02 (scFv)
scFv: GVQLVESGAEVKKPGASVKVSCRTSGYTFTSNSFSWVRQAPGQGLEWMGGIIPIFGTANYAQKLQGRVTITADELTRTVYMDLSSLRSEDTAVYYCATGMGDHYGMDVWGRGTLVTVSSGGGGSGGGGSGGGGSQSVLTQPASVSGSPGQSITISCTGTSSDVGGYNYVSWYQQHPGKAPKLMIYEGSKRPSGVSNRFSGSKSGNTASLTISGLQAEDEADYYCSSYTTRSTRVFGGGTKLTVLG
B5: I022D01 (scFv)
scFv: EVNLRESGGGVDQPGRSLRLSCAASGFTFSSYGMHWVRQAPGKGLEWVAVISYDGSNKYYADSVKGRFTISRDNSKNTLYLQMNSLRAEDTAVYYCAKDGYYDILTGYSYYGMDVWGQGPMVAVSSGGGGSGGGGSGGGGSSELTQDPAVSVALGQTVRITCQGDSLRSYYTNWFQQKPGQAPLLVVYAKNKRPSGIPDRFSGSSSGNTASLTITGAQAEDEADYYCNSRDSSGNHVVFGGGTKLTVLG
B6: I031G08 (scFv)
scFv: QVQLVQSGAEVKKPGSSVKVSCRASGGSFIDDSINWLRQAPGQGLEWVGGTIPLANRANYAQKFRDRATITADELTATVFLELTSLRSDDTALYYCARSSPPKWYDALTGHSSYHSAMDVWGRGTLVTVSSGGGGSGGGGSGGGGSAQSVLTQPPSASGTPGQRVTISCSGTNSNIGGNTVNWYQQLPGTAPRLLIYSNNQRPSGVPDRFSGSKSGTSASLAISGLQSEDEADYYCAARDDRLNAHVVFGGGTKVTVLG
B7: I029F11 (scFv)
scFv: QVQLVQSRAEVKRPGASVKVSCKASGYRFGSYGITWVRQAPGQGLEWMGWISTRYGDTKSAQKVEGRVTLTTDTSTSTAYMELRSLRSDDTAVYYCARDGSYDILTGYYIDNYMDVWGRGTLVTVSSGGGGSGGGGSGGGGSQSVLTQPPSASGTPGQRVTISCSGSSSNIGSNTVNWYQRLPGAAPQLLIYNNDQRPSGIPDRFSGSKSGTSGSLVISGLQSEDEADYYCASWDDSLNGRVFGGGTKLTVLG
B8: I051C04 (scFv)
scFv: QVQLQQSGAEVKKPGSSVKVSCRTSGGTFSNYGLSWVRQAPGQGLEWMGGVIPISSTIKYGQKFQDRLTIAADDLTNTTFMELSSLRPEDTAVYYCARAATTSQKHNKYAYYFYGMDVWGQGTMVTVSSGGGGSGGGGSGGGGSAQSALTQPASVSGSPGQSITISCTGTSSDVGGYNYVSWYQQHPGKAPKLMIYEVSNRPSGVSNRFSGSKSGNTASLTISGLQAEDEADYYCSSYTSSSTLVFGGGTKVTVLG
notes: also called 1051C04
B9: I071B03 (scFv)
scFv: QVQLQQSGAEVKKPGASVKVSCKASGYTFTKYTMHWVRQAPGQGPEWMGWINGGSGDTKYSRKFQGRVTITKDTSASAAYMELSSLGSEDTALYYCARATYDPLTGYSFDGFDIWGQGTMVTVSSGGGGSGGGGSGGGGSQSVLTQPASVSGSPGQSITISCTGTSSDVGGYNYVSWYQQHPGKAPKLMIYEGSKRPSGVSNRFSGSKSGNTASLTISGLQAEDEADYYCSSYTTRSTRVFGGGTKLTVLD
B10: I026C04 (scFv)
scFv: QVQLVQSGAEVKKPGSSVKVSCRASGGSFNHAISWVRQAPGRGLEWMGGILPMYGTANYAQKFQGRVTITADKLTNTVYMDLSRLRYEDTAVYYCARELGLSIVGATTGALDMWGKGTLVTVSSGGGGSGGGGSGGGGSAQSVLTQPPSVSAAPGQKVTISCSGSSSNIGNNYVSWYQQIPGTAPKLLIYENNKRPSGIPDRFSGSKSGASATLDITGLQTGDEADYYCGTWHSSQVVFGGGTKLTVLG
B11: I025B09 (scFv)
scFv: B10 scFv with Q3H
notes: also called I0025B09
B12: I025B06 (scFv)
scFv: B10 scFv with T213A
B13: I067F05 (scFv)
scFv: QVQLQQSGAEVKKPGSSVKVSCKASGGTFSSYAISWVRQAPGQGLEWMGRIIPIVNMANYAQKFQGRVTLTADKSTGTAYMELTSLRSEDTAVYYCARENYDSLTGYYGAFDIWGKGTMVTVSSGGGGSGGGGSGGGGSQSVLTQPASVSGSPGQSITISCTGTSSDVGGYNYVSWYQQHPGKAPKLMIYEGSKRPSGVSNRFSGSKSGNTASLTISGLQAEDEADYYCSSYTTRSTRVFGGGTKLTVLG
B14: I068C06 (scFv)
scFv: EVQLVQSGAEVKKPGSSVKVSCKASGGTVSSRTISWVRQAPGQGLEWMGGSLPPSGAPIYAQKFQGRVAITADALTNTAFMELRSLKSDDTAVYYCARDQGRYLDLWGKGTLVTVSSGGGGSGGGGSGGGGSAQAVLTQPSSVSGAPGQRVTISCTGSRSNIGAGYDVHWYQQLPGTAPKLLIYGNSNRPSGVPDRFSGSKSGTSASLAITGLQADDEADYYCQSYDTSLRGLFGTGTKVTVLG
notes: also called I0068C06; I0068CO6
B15: I026C04-K (scFv)
scFv: QVQLVQSGAEVKKPGSSVKVSCRASGGSFNKHAISWVRQAPGRGLEWMGGILPMYGTANYAQKFQGRVTITADKLTNTVYMDLSRLRYEDTAVYYCARELGLSIVGATTGALDMWGKGTLVTVSSGGGGSGGGGSGGGGSAQSVLTQPPSVSAAPGQKVTISCSGSSSNIGNNYVSWYQQIPGTAPKLLIYENNKRPSGIPDRFSGSKSGASATLDITGLQTGDEADYYCGTWHSSQVVFGGGTKLTVLG
B16: I078D02 (scFv)
scFv: QVQLQQSGAEVKKPGASVKVSCKASGYTFTSYGISWVRQAPGQGLEWMGWISAYNGNTNYAQKLQGRVTMTTDTSTSTAYMELRSLRSDDTAVYYCARVYYDILTGYNLFFDYWGKGTMVTVSSGGGGSGGGGSGGGGSQSVLTQPASVSGSPGQSITISCTGTSSDVGGYNYVSWYQQHPGKAPKLMIYEGSKRPSGVSNRFSGSKSGNTASLTISGLQAEDEADYYCSSYTTRSTRVFGGGTKLTVLG
B17: I078H08 (scFv)
scFv: B16 scFv with Q5V, G8A, K116R, M119T

Biological target: T2, biotinylated B Lymphocyte Stimulator, soluble form (human, UniProt Q9Y275 134-285, biotinylated with NHS-biotin, molar ratio 20:1 biotin:protein)
T2 construct: also called bio-B Lymphocyte Stimulator; free B Lymphocyte Stimulator
Experiment: phage scFv, receptor binding inhibition on IM9 cells
Method: Fifty-five μl of each appropriate phage supernatant was added to each well and the final volume in each well was 65 μl. Plates were then incubated at room temperature for 30 minutes.
Plates were washed three times in PBST and three times in PBS, tapped dry and 50 μl of streptavidin-Delfia (Wallac) was added to each well at 1:1000 dilution in the Manufacturer's assay buffer. The plates were then incubated at room temperature for 1 hour and washed six times in Delfia wash solution (Wallac). After tapping the plates dry, 100 μl per well of Delfia enhancement solution (Wallac) was added. The plates were gently tapped to encourage micelle formation, incubated at room temperature for 10 minutes, and fluorescence read on a Wallac 1420 workstation at […].

binding result	Binder
binds	B1
binds	B2
binds	B3
binds	B4
binds	B5
binds	B6
binds	B7
binds	B8

Biological target: LIGHT (human, UniProt O43557 74-240, limits assumed)
Experiment: phage ELISA

LIGHT, sequence (O43557 74-240 limits assumed): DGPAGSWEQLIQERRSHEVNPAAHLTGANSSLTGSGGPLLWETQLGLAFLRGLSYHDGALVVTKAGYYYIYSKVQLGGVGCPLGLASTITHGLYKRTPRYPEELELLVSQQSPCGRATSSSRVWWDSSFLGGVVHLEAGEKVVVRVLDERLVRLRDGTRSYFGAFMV

binding result	Binder
no binding	B9
no binding	B10
no binding	B11
no binding	B12
no binding	B13
no binding	B14
no binding	B15
no binding	B16
no binding	B17

Biological target: T1, TNF-beta
Experiment: phage ELISA

binding result	Binder
no binding	B9
no binding	B10
no binding	B11
no binding	B12
no binding	B13
no binding	B14
no binding	B15
no binding	B16
no binding	B17

Biological target: T3, TNF-alpha (human, UniProt P01375 77-233)
T3 construct: also called TNFα; TNF-α
Experiment: phage ELISA

T3 sequence (P01375 77-233 limits assumed): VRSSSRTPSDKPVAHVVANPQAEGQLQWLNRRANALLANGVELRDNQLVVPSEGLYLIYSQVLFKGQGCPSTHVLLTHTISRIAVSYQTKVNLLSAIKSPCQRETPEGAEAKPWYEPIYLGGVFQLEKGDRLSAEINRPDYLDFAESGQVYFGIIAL

binding result	Binder
no binding	B9
no binding	B10
no binding	B11
no binding	B12
no binding	B13
no binding	B14
no binding	B15
no binding	B16
no binding	B17

Biological target: T4, TRAIL (human, UniProt P50591 114-281)
T4 construct: also called TNF-related apoptosis inducing ligand
Experiment: phage ELISA

T4 sequence (P50591 114-281 limits assumed): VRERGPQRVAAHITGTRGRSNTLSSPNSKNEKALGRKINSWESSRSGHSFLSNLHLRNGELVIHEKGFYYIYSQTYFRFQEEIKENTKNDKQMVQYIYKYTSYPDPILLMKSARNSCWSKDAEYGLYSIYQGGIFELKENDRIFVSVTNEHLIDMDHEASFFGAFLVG

binding result	Binder
no binding	B9
no binding	B10
no binding	B11
no binding	B12
no binding	B13
no binding	B14
no binding	B15
no binding	B16
no binding	B17

Biological target: T5, B Lymphocyte Stimulator, soluble form (human) (human, UniProt Q9Y275 134-285, biotinylated with NHS-biotin where used as biotinylated B Lymphocyte Stimulator)
T5 construct: Coated on plastic, captured on streptavidin plates, amine-coupled to a CM5 chip or free in solution, depending on the assay; also called BLyS; immobilized B Lymphocyte Stimulator
Experiment: phage ELISA

binding result	Binder
binds	B9
binds	B10
binds	B11
binds	B12
binds	B13
binds	B16
binds	B17
